Source: publication PMC10785194

Legend:
Details in all cases: control: untreated
immunoblot, C4-2B = experiment: immunoblot, C4-2B
[1] = immunofluorescence, nuclear AR, C4-2B
[2] = CHX chase, AR protein stability by immunoblot

B1: androgen receptor (AR): OSMI-1 (protein)
parent chain: MEVQLGLGRVYPRPPSKTYRGAFQNLFQSVREVIQNPGPRHPEAASAAPPGASLLLLQQQQQQQQQQQQQQQQQQQQQQQETSPRQQQQQQGEDGSPQAHRRGPTGYLVLDEEQQPSQPQSALECHPERGCVPEPGAAVAASKGLPQQLPAPPDEDDSAAPSTLSLLGPTFPGLSSCSADLKDILSEASTMQLLQQQQQEAVSEGSSSGRAREASGAPTSSKDNYLGGTSTISDNAKELCKAVSVSMGLGVEALEHLSPGEQLRGDCMYAPLLGVPPAVRPTPCAPLAECKGSLLDDSAGKSTEDTAEYSPFKGGYTKGLEGESLGCSGSAAAGSSGTLELPSTLSLYKSGALDEAAAYQSRDYYNFPLALAGPPPPPPPPHPHARIKLENPLDYGSAWAAAAAQCRYGDLASLHGAGAAGPGSGSPSAAASSSWHTLFTAEEGQLYGPCGGGGGGGGGGGGGGGGGGGGGGGEAGAVAPYGYTRPPQGLAGQESDFTAPDVWYPGGMVSRVPYPSPTCVKSEMGPWMDSYSGPYGDMRLETARDHVLPIDYYFPPQKTCLICGDEASGCHYGALTCGSCKVFFKRAAEGKQKYLCASRNDCTIDKFRRKNCPSCRLRKCYEAGMTLGARKLKKLGNLKLQEEGEASSTTSPTEETTQKLTVSHIEGYECQPIFLNVLEAIEPGVVCAGHDNNQPDSFAALLSSLNELGERQLVHVVKWAKALPGFRNLHVDDQMAVIQYSWMGLMVFAMGWRSFTNVNSRMLYFAPDLVFNEYRMHKSRMYSQCVRMRHLSQEFGWLQITPQEFLCMKALLLFSIIPVDGLKNQKFFDELRMNYIKELDRIIACKRKNPTSCSRRFYQLTKLLDSVQPIARELHQFTFDLLIKSHMVSVDFPEMMAEIISVQVPKILSGKVKPIYFHTQ
immunoblot, C4-2B; glycan lost
  other: AR S81 phosphorylation: increases
[1]; glycan lost
  localisation_or_trafficking: increases
[2]; glycan lost
  degradation_or_half_life: increases

B2: androgen receptor (AR): Thiamet G (protein)
parent chain: B1 parent chain
immunoblot, C4-2B; glycan gained
  other: AR S81 phosphorylation: decreases
[1]; glycan gained
  localisation_or_trafficking: decreases
[2]; glycan gained
  degradation_or_half_life: decreases
